Test results reported in the RNAGym collection of RNA variant scans (doi:10.7554/elife.80360).

B1: Hairpin Ribozyme (parent)
chain: GUCCUCUUUCACGUGCGCGUGAAAGAGAGAAGUGAACCAGAGAAACACACGUUGUGGUAUAUUACCUGGUA

Variants of: B1
Assay: self-cleavage, relative activity (ratio to wild type); higher = more cleavage; co-transcriptional

Row | Variant | self-cleavage
1 | U14G G17A | 0.854
2 | G15C G19A | 0.913
3 | U14C G56C | 0.163
4 | U14C G56U | 0.126
5 | G13U C50U | 0.268
6 | U14A G54C | 0.338
7 | U14A G68U | 0.307
8 | U14A G68A | 0.173
9 | U14G G69C | 0.238
10 | G15A A35G | 0.934
11 | U14G C46G | 0.131
12 | G15C G25A | 0.607
13 | G15C G25U | 0.637
14 | G15C G29C | 0.116
15 | G15C G29U | 0.174
16 | U14A A35U | 0.656
17 | U14G G29A | 0.0483
18 | U14G G29U | 0.151
19 | G13U U63G | 0.257
20 | G15C A23U | 1.02
21 | G15C A23C | 0.868

Row | Variant | self-cleavage
22 | G13U U20A | 0.73
23 | G13U U20C | 1.03
24 | U14A A31U | 0.124
25 | G15C C66G | 0.0808
26 | U14G U20A | 0.866
27 | U14G U20C | 0.992
28 | G15C A71C | 1.29
29 | G13U U14C | 0.544
30 | G13U G32A | 0.183
31 | G15C G51U | 0.91
32 | U14G G32A | 0.191
33 | U14G G32U | 0.107
34 | G13U U67G | 0.241
35 | U14C A41U | 1.34
36 | G15C A24U | 0.884
37 | U14C U52C | 0.938
38 | U14G U63A | 0.217
39 | U14G G54A | 0.439
40 | U14C A23C | 0.693
41 | U14A A36U | 0.582
42 | U14A A36C | 0.502

Row | Variant | self-cleavage
43 | U14A A61C | 0.331
44 | U14G U55G | 0.273
45 | U14A C50U | 0.397
46 | U14A C50A | 0.13
47 | G15A G25C | 0.491
48 | G15C C65U | 0.352
49 | U14C G54U | 0.541
50 | U14C G54A | 0.509
51 | G15C G57C | 0.137
52 | U14A G25C | 0.418
53 | G15A A59U | 0.213
54 | G15A A59C | 0.182
55 | U14C A36U | 0.844
56 | U14C A36C | 0.476
57 | U14C A36G | 1.44
58 | U14A G51C | 0.89
59 | U14A G51A | 0.957
60 | G15A U33C | 0.117
61 | G15A U33A | 0.0921
62 | G15A U63C | 0.0715
63 | G15A U63G | 0.0686

Row | Variant | self-cleavage
64 | G15A U63A | 0.116
65 | U14G A71U | 0.678
66 | U14G A30U | 0.175
67 | G15C U62C | 0.0966
68 | U14A C38A | 0.171
69 | U14G C50U | 0.2
70 | U14G C50G | 0.2
71 | U14C A49G | 0.553
72 | G15A C38G | 0.297
73 | G15A C38A | 0.148
74 | G15A U60C | 0.853
75 | U14G A45G | 0.0744
76 | U14C A26C | 0.727
77 | U14C A26G | 0.919
78 | U14C A26U | 0.418
79 | G15A A44U | 0.196
80 | G15A A44C | 0.143
81 | U14G A28C | 0.589
82 | U14G A28G | 1.15
83 | G15C U63A | 0.188
84 | U14C G34C | 1.5
